Three substances from doi:10.1101/2020.05.05.078790 can be followed below.

The target of this assay is HLA-E*0103 heavy chain-β2M complex (human). As to the kind of experiment: ELISA.

On to BZLF1 (…) (peptide), for which the percent of the VL9 signal after background subtraction worked out at 41%.
Take RL9HIV (…) (peptide): the percent of the VL9 signal after background subtraction stood at 43%.
The result for RL9SIV (…) (peptide) reads 22%.
